In US20240343811A1 (SHANDONG SIMCERE BIOPHARMACUTICAL, published 2024):

T1: human CD16b (NA1), full length, on FlpinCHO cells (human, UniProt O75015 17-200)
T1 construct: also called FlpinCHO-human CD16b (NA1)
T1 chain: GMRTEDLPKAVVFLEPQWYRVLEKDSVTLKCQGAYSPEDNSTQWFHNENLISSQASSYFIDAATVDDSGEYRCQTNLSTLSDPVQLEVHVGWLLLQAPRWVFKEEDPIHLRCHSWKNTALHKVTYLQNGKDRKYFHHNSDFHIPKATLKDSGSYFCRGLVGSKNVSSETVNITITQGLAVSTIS

T2: Human CD16b (NA2)-his (human)
T2 construct: entry holds ECD, linker, His tag and AVI tag
T2 chain: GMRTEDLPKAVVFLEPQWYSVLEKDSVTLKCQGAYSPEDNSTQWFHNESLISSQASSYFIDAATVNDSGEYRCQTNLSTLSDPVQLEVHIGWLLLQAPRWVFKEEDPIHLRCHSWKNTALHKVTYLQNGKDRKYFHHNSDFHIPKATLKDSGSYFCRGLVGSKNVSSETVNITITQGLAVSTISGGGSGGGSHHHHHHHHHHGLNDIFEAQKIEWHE

T3: Cynomolgus monkey CD16-his (cynomolgus monkey)
T3 construct: entry holds ECD, AVI tag, linker and His tag; also called cyno CD16-ECD his; Cyno CD16
T3 chain: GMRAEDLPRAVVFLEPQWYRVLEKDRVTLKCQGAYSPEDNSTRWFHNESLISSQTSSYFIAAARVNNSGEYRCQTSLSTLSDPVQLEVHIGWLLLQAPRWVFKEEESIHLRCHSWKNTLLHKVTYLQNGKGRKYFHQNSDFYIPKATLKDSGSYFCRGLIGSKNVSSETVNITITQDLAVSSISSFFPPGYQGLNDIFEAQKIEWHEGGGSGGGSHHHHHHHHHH


Assays:
[1] = molecular target: T1, human CD16b (NA1), full length, on …; experiment: FACS on FlpinCHO cells
Outline: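 EC50 values come from fitted MFI curves measured by FACS. Antibody dilutions were bound for 1 hour on ice to CD16b-transfected FlpinCHO cells suspended in PBS with 2% BSA blocking solution.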

[2] = molecular target: T4, CD16 on primary human NK cells (human, UniProt P08637 17-254); experiment: FACS on human NK cells
T4 construct: whole, on cells; also called resting NK cells
Outline: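 EC50 came from curve fitting of flow-cytometric MFI. Antibody titrations were bound for 1 hour on ice to fresh human NK cells blocked in PBS with 2% (w/w) BSA (2×10⁶ cells/ml), followed by five PBS washes before acquisition.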

[3] = molecular target: T4, CD16 on primary human NK cells; experiment: FACS on human NK cells, biotinylated antibody
[4] = molecular target: human CD16a (158F), full length, on FlpinCHO cells (human, UniProt P08637 17-254); experiment: FACS, biotinylated antibody, +10 mg/mL human immunoglobulin
[5] = molecular target: T5, human CD16a (158V), full length, on cells (human, UniProt P08637 17-254); experiment: as above
T5 construct: also used as target for the bought Jurkat-NFAT reporter line stably expressing human CD16a (158V); also called FlpinCHO-human CD16a (158V); FlpinCHO-CD16a (158V)

[6] = molecular target: T2, Human CD16b (NA2)-his; experiment: SPR (Biacore), antibody captured on Protein A
Outline: (§1)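 Protein A–captured antibody was probed with CD16-his ECD in HBS-EP+ at 25 °C: five 2-fold dilutions from 200 nM, 240 s at 30 μL/min, dissociation up to 600 s. Glycine pH 1.5 regenerated the chip. Apparent KD came from a double-referenced 1:1 Langmuir fit.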

[7] = molecular target: T3, Cynomolgus monkey CD16-his; experiment: SPR (Biacore), antibody captured on Protein A
Outline: as §1

T5 sequence (P08637 17-254 F176V limits assumed): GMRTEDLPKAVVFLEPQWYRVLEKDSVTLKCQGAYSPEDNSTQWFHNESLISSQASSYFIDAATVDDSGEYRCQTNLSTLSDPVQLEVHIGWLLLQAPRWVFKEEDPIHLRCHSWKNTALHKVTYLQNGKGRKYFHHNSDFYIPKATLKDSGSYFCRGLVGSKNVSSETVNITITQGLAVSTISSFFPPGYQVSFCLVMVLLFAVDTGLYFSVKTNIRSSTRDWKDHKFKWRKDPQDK
human CD16a (158F), full length, on FlpinCHO cells, sequence (P08637 17-254 limits assumed): as the sequence (P08637 17-254 F176V limits assumed) above, with V160F counted along it

Binder | EC50 [1] | Maximum mean fluorescence intensity [1] | EC50 [2] | Maximum mean fluorescence intensity [2] | EC50 [3] | Maximum mean fluorescence intensity [3] | EC50 [4] | Maximum mean fluorescence intensity [4] | EC50 [5] | Maximum mean fluorescence intensity [5] | Kd [6] | koff [6] | kon [6] | Kd [7] | koff [7] | kon [7]
VHH06 VHH-Fc antibody (Fc fusion) EVQLVESGGGLVQAGGSLRLSCVASGSTWTTYAVRWYRQAPGKQREWVAFISVDGSTNYPDSVKGRFIVSRDNAKNTVYLQMNSLKPEDTADYICRVGGQYWGQGTQVTVSSEPKSSDKTHTCPPCPAPEFEGGPSVFLFPPKPKDTLMISRTPEVTCVVVAVSHEDPEVKFNWYVDGVEVHNAKTKPREEQYNSTYRVVSVLTVLHQDWLNGKEYKCKVSNKALPAPIEKTISKAKGQPREPQVYTLPPSREEMTKNQVSLTCLVKGFYPSDIAVEWESNGQPENNYKTTPPVLDSDGSFFLYSKLTVDKSRWQQGNVFSCSVMHEALHNHYTQKSLSLSPGK | 1.41 nM | 33300 | 0.54 nM | 2600 | 1.42 nM | 69600 | 1.66 nM | 10700 | 1.77 nM | 14500 | – | – | – | – | – | –
VHH11 VHH-Fc antibody (Fc fusion) EVQVVESGGGLAQAGGSLRLSCAVSGITFSSYAMGWYRQDPGKQRELVAAINRFGLTNYADSVKGRFTISRDNAKNTVYLQMTSLKPEDTAVYYCNTGGVYSHPNYYTGTYWGQGTQVTVSSEPKSSDKTHTCPPCPAPEFEGGPSVFLFPPKPKDTLMISRTPEVTCVVVAVSHEDPEVKFNWYVDGVEVHNAKTKPREEQYNSTYRVVSVLTVLHQDWLNGKEYKCKVSNKALPAPIEKTISKAKGQPREPQVYTLPPSREEMTKNQVSLTCLVKGFYPSDIAVEWESNGQPENNYKTTPPVLDSDGSFFLYSKLTVDKSRWQQGNVFSCSVMHEALHNHYTQKSLSLSPGK | 1.03 nM | 37900 | 0.33 nM | 2660 | 0.95 nM | 60700 | 0.75 nM | 6720 | 1.12 nM | 10800 | 4920 nM | 0.2 s⁻¹ | 40700 M⁻¹ s⁻¹ | 23.6 nM | 0.015 s⁻¹ | 633000 M⁻¹ s⁻¹
VHH12 VHH-Fc antibody (Fc fusion) QVQLVESGGGLVQAGGSLRLSCAASGITFSSYAMGWYRQAPGKQRELVAAINRFGLTNYADFVKGRFTISRVNAKNTVYLQMTSLKPEDTAVYYCNTGGVYSHPDYYTGTYWGQGTQVTVSSEPKSSDKTHTCPPCPAPEFEGGPSVFLFPPKPKDTLMISRTPEVTCVVVAVSHEDPEVKFNWYVDGVEVHNAKTKPREEQYNSTYRVVSVLTVLHQDWLNGKEYKCKVSNKALPAPIEKTISKAKGQPREPQVYTLPPSREEMTKNQVSLTCLVKGFYPSDIAVEWESNGQPENNYKTTPPVLDSDGSFFLYSKLTVDKSRWQQGNVFSCSVMHEALHNHYTQKSLSLSPGK | 0.62 nM | 58100 | 0.21 nM | 2680 | 0.4 nM | 46500 | 0.81 nM | 5310 | 0.97 nM | 8140 | 1050 nM | 0.0998 s⁻¹ | 95100 M⁻¹ s⁻¹ | 8.51 nM | 0.0101 s⁻¹ | 1.18e+06 M⁻¹ s⁻¹
